These results are taken from patent US20240150443A1, “[…] MEASLES VIRUS” (The Trustees of Columbia University in the City of New York, priority 2021, published 2024).

The target in experiment [1] is T1, MeV IC323 F (pre-fusion, on transfected HEK293T cells) (Measles virus strain IC323, UniProt Q786F3 24-550).
T1 construct: whole, on cells; also called pCAGGS-MeV IC323 F; MeV F
T1 sequence: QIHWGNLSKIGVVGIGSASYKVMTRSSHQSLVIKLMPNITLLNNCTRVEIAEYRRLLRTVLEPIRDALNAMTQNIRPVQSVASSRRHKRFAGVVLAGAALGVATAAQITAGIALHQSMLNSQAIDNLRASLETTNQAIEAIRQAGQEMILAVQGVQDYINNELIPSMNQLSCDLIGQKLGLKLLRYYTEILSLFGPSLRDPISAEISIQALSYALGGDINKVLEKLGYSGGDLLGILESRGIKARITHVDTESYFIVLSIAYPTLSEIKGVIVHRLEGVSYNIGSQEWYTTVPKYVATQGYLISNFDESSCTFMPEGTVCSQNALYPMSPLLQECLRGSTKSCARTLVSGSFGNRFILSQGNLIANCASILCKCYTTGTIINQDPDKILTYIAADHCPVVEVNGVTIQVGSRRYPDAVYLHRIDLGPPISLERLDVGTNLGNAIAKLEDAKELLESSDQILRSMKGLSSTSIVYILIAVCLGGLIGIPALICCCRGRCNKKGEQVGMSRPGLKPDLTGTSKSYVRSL
The experiment can be described thus: immunofluorescence of transfected HEK293T cells, Alexa 488 anti 6-histidine antibody.

The next experiment has as its system MeV IC323-EGFP. Kind of experiment: Viral spread / plaque enlargement assay in Vero-SLAM cells. Format: cell-based, measles virus (MeV). On the procedure:
In an effort to identify a more broadly reactive mAb, the neutralizing activity of two other previously identified mAbs, mAb 77.4 and mAb Y503, was assessed in the experiments shown in FIG. 1 I-K. Vero cells expressing the measles receptor SLAM (Vero-SLAM) were infected with MeV IC323-EGFP virus (the expression of fluorescent protein permits tracking of the spread of infection). Six hours post-infection, the cells were treated with serial dilutions of mAbs 77.4 or Y503.
(H-K) VeroSLAM cells were infected with MeV IC323-EGFP at a multiplicity of infection (MOI)=0.001. […] (K) MeV infection in Vero-SLAM cells either untreated (NT) or treated at the indicated dilution of supernatant fluids from hybridomas producing anti F-mAb 77.4 or mAb Y503 were quantified using fluorescent spectroscopy. Data are expressed as relative fluorescence units (RFUs).
The scFv was expressed in eukaryotic cells and purified by affinity purification using a 6×-hisitidine tag (see Materials and Methods). Vero-SLAM cells were infected with MeV IC323-EGFP virus and six hours post-infection, the cells were treated with serial dilutions of the scFv (62.5 μg/ml and 1.95 μg/ml are shown in 3C and CD) and immunofluorescent syncytium formation was measured to quantify viral spread 48 hours post-infection.
Plaque enlargement assay. […] Quantification was determined using fluorescent spectroscopy.

For experiment [2], the target named is MeV G954 H/F fusion complex (Measles virus, UniProt Q786F3, H419R/Q139R/R70K). The settings on record: SLAM-bearing HEK293T target cells, 6 h. On the procedure:
(§1) To assess the specificity of the scFV derived from mAb 77.4 for MeV F, cells expressing either MeV IC323 F or the human parainfluenza virus 3 fusion protein (HPIV3 F) were incubated with the scFv and subjected to immunofluorescence using a fluorescently-labeled Alexa 488 anti 6-histidine antibody (FIG. 3E-F). […] Finally, we assessed whether the scFv blocked cell-cell fusion mediated by either MeV IC323 or G954 H/F fusion complexes (FIG. 3G). For this experiment we used a beta-galactosidase (β-Gal) complementation assay^18 that measures the fusion of cells that express viral envelope glycoproteins (MeV IC323 or G954 H/F) with cells that express the MeV receptor SLAM (FIG. 3G). HEK293T (“target cells”) were transiently transfected with SLAM and the omega reporter subunit of beta-galactosidase, and incubated for the indicated time period in the presence of different concentrations of inhibitors with “effector cells” co-expressing MeV G954 or IC323 H and F together with the alpha reporter subunit of beta-galactosidase. Fusion between the target and effector cells leads to reconstitution of beta-galactosidase activity, which we quantified using the luminescence-based Galacto-Star™ β-Galactosidase Reporter Gene kit (ThermoFisher, US).
(§2) (A) Sequence of the single-chain variable fragment antibody derived from anti-MeV F mAb 77.4. […] Images were obtained using epifluorescent microscopy 48 h post-infection (scale bar=200 μm). (C) HEK293T cells were transfected with either pCAGGS-HPIV3 F or MeV IC323 F and stained using scFv 24 h post-transfection (scale bar=200 μm). (D) Fusion of MeV G954 or IC323 H/F co-expressing cells with SLAM-bearing cells in the presence of scFv at indicated concentrations was quantified at 6 h using a β-galactosidase complementation assay.

Experiment [3] deals with human parainfluenza virus 3 fusion protein (HPIV3 F) (Human parainfluenza 3 virus, UniProt P06828). The settings on record: HEK293T, 24 h post-transfection. As to the method: as §1, §2
For experiment [4], the target named is MeV IC323 H/F fusion complex (Measles virus, UniProt Q786F3). The note with it: SLAM-bearing HEK293T target cells, 6 h. On the procedure: as §1, §2
The next experiment has as its system MeV WTFb. Kind of experiment: In vivo prophylaxis against MeV infection in cotton rats (scFv, intranasal). More on the design: species or system cotton rats (Sigmodon hispidus). As to the method:
To assess anti-MeV prophylaxis by the scFv in vivo, we used cotton rats (CR) as an infection model. The scFv antibody construct was administrated via intranasal delivery 24 and 12 h before infection. Four days after infection, the animals were euthanized, and the viral titers in the animals' lungs were quantified.
Cotton rats were infected intranasally with 10^5 TCID50/ml of MeV WTFb. Animals received either the indicated amount of mAb 77.4-derived scFv construct (n=4) or vehicle (n=8) 24 h and 12 h prior to infection. Animals were euthanized 5 days after infection. Lungs were collected and homogenized for TCID50 titration. Results are presented as TCID50/g of lung. Statistical analyses were performed using the Mann-Whitney U-test.
In vivo experiments: Cotton rats. Inbred cotton rats (Sigmodon hispidus) were purchased from Envigo, Inc., Indianapolis. Both male and female cotton rats aged 5 to 7 weeks were used. For infection, 10^5 TCID50 of MeV (strain WTFb) was inoculated intranasally to isofluorane-anesthetised cotton rats in a volume of 100 μl. Treatment was performed in the same way at the indicated time points. Four days after infection, the animals were euthanized using CO2 inhalation, and their lungs were collected and weighed. Lung tissue was minced with scissors and homogenized with a glass dounce homogenizer. Vero-SLAM cells were inoculated with serial 10-fold dilutions of supernatant fluids to assess the presence of infectious virus in 48-well plates using cytopathic effect (CPE) as an endpoint. Plates were scored for CPE microscopically after 7 days, and the TCID50 was calculated as described previously^43.

B1: single-chain variable fragment (scFv) derived from anti-MeV F mAb 77.4 (scFv)
scFv: MDVQLQESGPGLVKPSQSLSLTCTVSGYSITSDYAWNWIRQFPGNKLEWMGYISYTLTTGYNPSLKSRISITRDSSKNQFFLQLNSVTTEDTATYYCARSGWLLPYWYFDVWGAGTTVTVSSGGGGSGGGSGGGGSDVQITQSPSYLAASPGETITINCRASKSISKYLAWYQEKPGKTNELLIYSGSTLQSGIPSRFRGSGSGTDFTLTISSLEPEDFAMYYCQQHNEYTLTFGGGTKLELKRHHHHHH
notes: also called mAb 77.4-derived scFv
Take B1: in experiment [1], the binding result was “binds”.

B2: scFv: single-chain fragment made by fusing VH and VL of mAb 77.4 via G4S linker, 6x-histidine tag; SEQ ID NO:3 (protein)
scFv: B1 scFv
modifications: 6x His tag; single-chain variable fragment antibody
Turning to B2, the “inhibition of viral infection (syncytium formation)” value with MeV IC323-EGFP (Vero-SLAM, serial dilutions of scFv, 48 hours post-infection) is listed as “clearly inhibited viral infection”. The “in vitro potency compared with the full antibody (mAb 77.4)” value in the experiment with MeV IC323-EGFP (general statement, assay not specified) is “less than that of the full antibody”. Moreover, the “inhibition of cell fusion mediated by G954 H/F” value in experiment [2] is listed as “inhibited cell fusion”. Moreover, in experiment [3], the “recognition of cells expressing HPIV3 F by scFv” value is recorded as “not those expressing HPIV3 F”. Moreover, the “inhibition of cell fusion mediated by IC323 H/F” value in experiment [4] is “inhibited cell fusion”. The lung infection result with MeV WTFb (0.5 mg/ml intranasal 24 and 12 h before infection) is “completely inhibited lung infection”; with MeV WTFb (1 mg/ml intranasal 24 and 12 h before infection), “completely inhibited lung infection”. In addition, the “viral titers in the lungs compared with untreated controls” value with MeV WTFb (intranasal 24 and 12 h before infection, doses 0.25, 0.5 and 1 mg/ml) is recorded as “significantly reduced viral titers in the lungs”.
